Columns and labels:
AncSZ = assay: phosphorylation enrichment, bacterial display (enrichment ratio); higher = better substrate or ligand; peptides without Tyr show the background
EPHB1 = EPHB1 (UniProt P54762); assay: as above
EPHB2 = EPHB2 (UniProt P29323); assay: as above
FGFR1 = FGFR1 (UniProt P11362); assay: as above
FGFR3 = FGFR3 (UniProt P22607); assay: as above
Fer (mouse) = assay: as above
Fes = Fes (UniProt P07332); assay: as above
Fyn = Fyn (UniProt P06241); assay: as above
Hck = Hck (UniProt P08631); assay: as above
Hck, sequence (P08631 whole entry, looked up): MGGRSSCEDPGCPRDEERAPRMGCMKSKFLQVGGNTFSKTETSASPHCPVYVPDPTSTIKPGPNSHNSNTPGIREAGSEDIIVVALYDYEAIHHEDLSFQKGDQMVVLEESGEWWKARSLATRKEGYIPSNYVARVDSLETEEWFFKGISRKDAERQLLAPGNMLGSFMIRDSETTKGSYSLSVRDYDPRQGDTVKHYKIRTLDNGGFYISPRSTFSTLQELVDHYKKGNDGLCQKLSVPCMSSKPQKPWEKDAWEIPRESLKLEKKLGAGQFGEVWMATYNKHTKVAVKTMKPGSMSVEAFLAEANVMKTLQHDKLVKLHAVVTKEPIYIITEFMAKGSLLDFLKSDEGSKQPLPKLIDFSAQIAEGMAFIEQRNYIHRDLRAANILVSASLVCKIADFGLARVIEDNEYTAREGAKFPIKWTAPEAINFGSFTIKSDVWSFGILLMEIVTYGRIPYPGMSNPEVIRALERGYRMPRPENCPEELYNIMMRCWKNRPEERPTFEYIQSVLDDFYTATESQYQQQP

Jak2 = Jak2 (UniProt O60674); assay: as above
MERTK = MERTK (UniProt Q12866); assay: as above
MERTK, sequence (Q12866 whole entry, looked up): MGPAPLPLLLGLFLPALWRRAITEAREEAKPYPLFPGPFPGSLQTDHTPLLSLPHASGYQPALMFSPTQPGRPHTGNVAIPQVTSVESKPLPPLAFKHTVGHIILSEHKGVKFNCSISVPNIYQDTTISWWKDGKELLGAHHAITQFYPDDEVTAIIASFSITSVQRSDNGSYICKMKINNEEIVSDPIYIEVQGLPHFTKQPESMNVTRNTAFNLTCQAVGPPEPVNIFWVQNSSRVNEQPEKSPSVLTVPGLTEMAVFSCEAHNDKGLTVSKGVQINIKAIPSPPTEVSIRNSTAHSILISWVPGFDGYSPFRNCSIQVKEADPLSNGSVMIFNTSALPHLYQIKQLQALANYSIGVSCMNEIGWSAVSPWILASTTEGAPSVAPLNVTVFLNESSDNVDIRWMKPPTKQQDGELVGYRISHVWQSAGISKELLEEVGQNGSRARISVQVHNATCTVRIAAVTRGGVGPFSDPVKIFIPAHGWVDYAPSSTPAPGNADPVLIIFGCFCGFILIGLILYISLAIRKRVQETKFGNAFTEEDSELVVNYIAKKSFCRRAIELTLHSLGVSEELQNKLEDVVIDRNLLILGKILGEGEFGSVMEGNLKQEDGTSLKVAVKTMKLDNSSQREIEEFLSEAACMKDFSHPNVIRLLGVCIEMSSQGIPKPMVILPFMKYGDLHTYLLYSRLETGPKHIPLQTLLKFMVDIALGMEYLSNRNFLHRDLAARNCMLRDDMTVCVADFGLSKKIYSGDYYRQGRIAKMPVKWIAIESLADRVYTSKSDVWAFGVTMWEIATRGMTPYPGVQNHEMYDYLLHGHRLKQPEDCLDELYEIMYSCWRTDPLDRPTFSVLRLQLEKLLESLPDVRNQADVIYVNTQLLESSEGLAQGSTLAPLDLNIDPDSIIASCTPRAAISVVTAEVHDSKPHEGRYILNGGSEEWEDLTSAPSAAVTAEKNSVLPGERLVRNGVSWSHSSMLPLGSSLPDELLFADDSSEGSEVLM

c-Abl (mouse) = assay: as above
c-Src = assay: as above
Grb2 SH2 = Grb2 SH2 (UniProt P62993); assay: SH2 binding enrichment of the phosphorylated peptide, bacterial display (enrichment ratio); higher = better substrate or ligand; peptides without Tyr show the background
Grb2 SH2, sequence (P62993 whole entry, looked up): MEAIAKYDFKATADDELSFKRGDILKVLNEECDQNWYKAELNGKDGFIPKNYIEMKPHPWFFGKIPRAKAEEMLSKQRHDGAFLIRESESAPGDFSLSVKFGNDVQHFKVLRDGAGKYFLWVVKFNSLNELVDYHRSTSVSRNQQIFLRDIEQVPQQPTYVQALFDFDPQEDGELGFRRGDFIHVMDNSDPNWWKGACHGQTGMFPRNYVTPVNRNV

SHP2-C SH2 = assay: as above
c-Src SH2 = assay: as above
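Wherever SH2 binding enrichment of the phosphorylated peptide, bacterial display is given: peptide library displayed on the E. coli surface as eCPX fusions, selected cells deep-sequenced, score is each peptide's frequency after selection divided by its frequency in the input.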
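Wherever phosphorylation enrichment, bacterial display is given: 11-residue human phosphosite peptides and single-mutation variants displayed on the E. coli surface, counted by deep sequencing, each peptide's frequency after selection divided by its frequency in the unselected input library; frequency after pTyr selection over input frequency; kinase dosed for 20-30% of maximal phosphorylation in three min.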

EPHB2, sequence (P29323 whole entry, looked up): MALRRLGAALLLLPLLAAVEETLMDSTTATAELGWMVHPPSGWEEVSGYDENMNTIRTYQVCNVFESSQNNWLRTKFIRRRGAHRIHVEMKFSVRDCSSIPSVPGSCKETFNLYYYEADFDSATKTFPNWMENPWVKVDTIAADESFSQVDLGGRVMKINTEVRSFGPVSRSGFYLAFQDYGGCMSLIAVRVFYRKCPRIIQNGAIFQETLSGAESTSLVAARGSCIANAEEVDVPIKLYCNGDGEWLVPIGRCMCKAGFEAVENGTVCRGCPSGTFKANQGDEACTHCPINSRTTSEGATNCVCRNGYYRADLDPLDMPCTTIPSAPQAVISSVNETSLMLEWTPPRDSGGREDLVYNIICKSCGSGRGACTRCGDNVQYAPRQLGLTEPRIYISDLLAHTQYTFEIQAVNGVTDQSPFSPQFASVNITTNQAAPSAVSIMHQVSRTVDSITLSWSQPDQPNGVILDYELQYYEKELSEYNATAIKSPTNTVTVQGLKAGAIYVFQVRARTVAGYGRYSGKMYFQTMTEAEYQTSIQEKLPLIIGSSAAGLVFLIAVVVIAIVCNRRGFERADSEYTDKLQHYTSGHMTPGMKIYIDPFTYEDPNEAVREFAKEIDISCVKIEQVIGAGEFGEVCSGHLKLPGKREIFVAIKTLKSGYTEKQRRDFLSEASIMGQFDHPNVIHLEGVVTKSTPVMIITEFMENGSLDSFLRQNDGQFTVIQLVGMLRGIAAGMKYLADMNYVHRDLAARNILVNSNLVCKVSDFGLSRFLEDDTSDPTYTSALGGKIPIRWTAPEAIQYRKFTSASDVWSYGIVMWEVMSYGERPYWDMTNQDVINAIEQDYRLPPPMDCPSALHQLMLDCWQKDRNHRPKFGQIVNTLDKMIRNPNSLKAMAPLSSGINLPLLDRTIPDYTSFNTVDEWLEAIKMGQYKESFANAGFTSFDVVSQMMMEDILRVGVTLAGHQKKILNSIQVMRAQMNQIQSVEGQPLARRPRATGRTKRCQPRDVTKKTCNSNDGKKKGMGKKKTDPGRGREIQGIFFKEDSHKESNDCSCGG
Fyn, sequence (P06241 whole entry, looked up): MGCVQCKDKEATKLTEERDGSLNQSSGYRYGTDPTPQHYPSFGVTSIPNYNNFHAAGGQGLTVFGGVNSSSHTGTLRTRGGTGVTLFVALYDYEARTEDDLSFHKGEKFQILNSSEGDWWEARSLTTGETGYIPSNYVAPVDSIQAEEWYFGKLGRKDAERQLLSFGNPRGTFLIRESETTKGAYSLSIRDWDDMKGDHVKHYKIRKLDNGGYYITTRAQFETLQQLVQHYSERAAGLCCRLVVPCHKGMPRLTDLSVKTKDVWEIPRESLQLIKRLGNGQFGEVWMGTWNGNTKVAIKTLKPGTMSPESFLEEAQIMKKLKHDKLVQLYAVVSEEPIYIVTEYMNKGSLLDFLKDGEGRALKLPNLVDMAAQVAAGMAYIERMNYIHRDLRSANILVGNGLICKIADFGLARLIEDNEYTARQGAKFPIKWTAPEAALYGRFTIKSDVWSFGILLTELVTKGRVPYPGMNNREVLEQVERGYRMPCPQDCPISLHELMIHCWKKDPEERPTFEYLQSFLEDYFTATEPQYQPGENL
FGFR1, sequence (P11362 whole entry, looked up): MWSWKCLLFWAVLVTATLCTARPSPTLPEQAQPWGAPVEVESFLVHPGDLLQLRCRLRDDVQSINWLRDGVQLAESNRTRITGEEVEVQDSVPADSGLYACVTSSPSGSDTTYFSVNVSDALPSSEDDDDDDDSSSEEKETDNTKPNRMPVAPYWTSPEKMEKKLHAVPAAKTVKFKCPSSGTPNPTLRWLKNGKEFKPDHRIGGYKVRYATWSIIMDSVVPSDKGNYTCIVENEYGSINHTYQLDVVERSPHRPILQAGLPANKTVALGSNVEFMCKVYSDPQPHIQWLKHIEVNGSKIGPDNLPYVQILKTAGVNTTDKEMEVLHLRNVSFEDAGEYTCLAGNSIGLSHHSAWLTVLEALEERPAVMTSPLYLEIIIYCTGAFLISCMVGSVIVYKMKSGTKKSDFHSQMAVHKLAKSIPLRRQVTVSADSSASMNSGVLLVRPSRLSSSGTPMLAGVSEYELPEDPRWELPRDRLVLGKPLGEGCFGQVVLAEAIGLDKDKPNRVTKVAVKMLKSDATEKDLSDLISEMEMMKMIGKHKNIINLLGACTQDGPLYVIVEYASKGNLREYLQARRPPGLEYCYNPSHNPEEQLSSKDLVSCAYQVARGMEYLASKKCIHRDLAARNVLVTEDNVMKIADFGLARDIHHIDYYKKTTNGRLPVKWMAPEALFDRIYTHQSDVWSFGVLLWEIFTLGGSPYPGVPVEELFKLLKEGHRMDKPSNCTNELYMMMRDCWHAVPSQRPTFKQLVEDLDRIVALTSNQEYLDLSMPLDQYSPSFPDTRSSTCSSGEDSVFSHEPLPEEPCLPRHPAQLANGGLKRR
FGFR3, sequence (P22607 whole entry, looked up): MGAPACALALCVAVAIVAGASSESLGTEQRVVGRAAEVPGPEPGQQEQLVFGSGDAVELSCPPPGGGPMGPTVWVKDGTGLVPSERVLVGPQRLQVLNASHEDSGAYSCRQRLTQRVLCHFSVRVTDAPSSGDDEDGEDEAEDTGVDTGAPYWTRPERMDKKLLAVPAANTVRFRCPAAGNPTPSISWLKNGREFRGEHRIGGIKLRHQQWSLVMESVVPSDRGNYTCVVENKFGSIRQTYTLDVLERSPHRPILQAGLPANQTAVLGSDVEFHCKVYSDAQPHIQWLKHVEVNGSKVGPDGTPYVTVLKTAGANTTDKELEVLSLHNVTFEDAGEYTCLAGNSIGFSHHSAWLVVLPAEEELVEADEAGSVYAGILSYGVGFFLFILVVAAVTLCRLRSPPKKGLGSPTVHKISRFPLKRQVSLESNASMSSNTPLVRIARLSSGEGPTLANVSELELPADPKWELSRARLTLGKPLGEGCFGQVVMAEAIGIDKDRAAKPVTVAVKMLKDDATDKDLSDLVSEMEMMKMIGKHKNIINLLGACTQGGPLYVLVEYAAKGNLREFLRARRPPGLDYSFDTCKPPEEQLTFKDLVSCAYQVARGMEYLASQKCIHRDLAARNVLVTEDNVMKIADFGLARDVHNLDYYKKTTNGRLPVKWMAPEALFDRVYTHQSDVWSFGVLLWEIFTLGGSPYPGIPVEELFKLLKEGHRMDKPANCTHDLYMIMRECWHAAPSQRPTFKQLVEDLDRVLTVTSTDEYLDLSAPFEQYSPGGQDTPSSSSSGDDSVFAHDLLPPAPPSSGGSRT

| Sequence | phosphorylation enrichment (AncSZ) | phosphorylation enrichment (EPHB1) | phosphorylation enrichment (EPHB2) | phosphorylation enrichment (FGFR1) | phosphorylation enrichment (FGFR3) | phosphorylation enrichment (Fer (mouse)) | phosphorylation enrichment (Fes) | phosphorylation enrichment (Fyn) | phosphorylation enrichment (Hck) | phosphorylation enrichment (Jak2) | phosphorylation enrichment (MERTK) | phosphorylation enrichment (c-Abl (mouse)) | phosphorylation enrichment (c-Src) | SH2 binding enrichment (Grb2 SH2) | SH2 binding enrichment (SHP2-C SH2) | SH2 binding enrichment (c-Src SH2) |
| --- | --- | --- | --- | --- | --- | --- | --- | --- | --- | --- | --- | --- | --- | --- | --- | --- |
| WFPFTYVEEDE [VAV3_Y842_S840Y_YF] | 1.19 | 0.702 | 0.473 | 0.52 | 0.692 | 0.547 | 1.11 | 0.516 | 0.437 | 1.1 | 0.453 | 0.655 | 0.521 | 1.48 | 1.48 | 1.23 |
| NNRVFYDNSDR [RS1_Y177_G178D] | 0.603 | 0.412 | 0.442 | 0.435 | 0.471 | 0.471 | 0.628 | 0.45 | 0.4 | 0.499 | 0.42 | 0.453 | 0.409 | 0.883 | 0.744 | 0.675 |
| GLSSAYGGLTS [KRT8_Y427] | 0.516 | 0.555 | 0.347 | 0.351 | 0.449 | 0.422 | 0.584 | 0.513 | 0.545 | 0.506 | 0.341 | 0.543 | 0.469 | 0.876 | 0.572 | 0.42 |
| FSKDNYKRVTG [PANK2_Y405_YF] | 0.397 | 0.409 | 0.412 | 0.407 | 0.393 | 0.394 | 0.452 | 0.401 | 0.396 | 0.409 | 0.383 | 0.416 | 0.369 | 0.719 | 0.502 | 0.406 |
| GGMAKYTRLHN [EHHADH_Y4_E3K] | 0.492 | 0.351 | 0.458 | 0.39 | 0.398 | 0.343 | 0.542 | 0.318 | 0.343 | 0.641 | 0.407 | 0.491 | 0.334 | 1.12 | 1.42 | 1.43 |
| SLIDMYSEVLD [OPA1_Y268] | 1.26 | 0.621 | 0.683 | 0.633 | 0.719 | 0.535 | 1.12 | 0.575 | 0.579 | 1.1 | 0.527 | 0.569 | 0.591 | 0.839 | 0.924 | 0.778 |
| KVALPYKPYFY [POLE_Y100] | 0.778 | 0.589 | 0.438 | 0.47 | 0.658 | 0.346 | 0.963 | 0.465 | 0.485 | 0.962 | 0.556 | 0.681 | 0.858 | 1.25 | 1.17 | 0.966 |
| QRRLVYFEGGA [RYR1_Y245_YF] | 3.89 | 1.18 | 0.995 | 1.34 | 0.902 | 1.33 | 1.39 | 1.02 | 1.13 | 0.825 | 0.531 | 0.912 | 0.376 | 1.58 | 0.944 | 0.727 |
| TFSPPYFHRNC [HGD_Y333_R330S_YF] | 1.81 | 0.268 | 1.08 | 0.535 | 0.83 | 0.483 | 0.808 | 0.363 | 0.539 | 2.21 | 0.718 | 0.878 | 1.01 | 8.96 | 1.18 | 2.42 |
| KLNNEHLELNF [MME_Y497_Y497H_YF] | 0.88 | 0.514 | 0.466 | 0.462 | 0.662 | 0.423 | 0.921 | 0.453 | 0.464 | 0.813 | 0.405 | 0.805 | 0.454 | 0.783 | 0.542 | 0.419 |
| IKIMGYSIRTI [IDS_Y490] | 0.991 | 0.494 | 0.52 | 0.424 | 0.657 | 0.478 | 1.01 | 0.452 | 0.457 | 0.862 | 0.455 | 0.822 | 0.571 | 1.4 | 1.02 | 0.816 |
| TNQVICLNPPI [DYNC1H1_Y970_Y970C] | 0.842 | 0.589 | 0.54 | 0.53 | 0.62 | 0.458 | 0.921 | 0.459 | 0.495 | 0.892 | 0.405 | 1.17 | 0.446 | 0.788 | 0.619 | 0.477 |
| FGSRLYKYAFK [FANCD2_Y458_L456R] | 0.593 | 0.363 | 0.429 | 0.344 | 0.407 | 0.473 | 0.715 | 0.341 | 0.399 | 0.488 | 0.342 | 0.5 | 0.318 | 1.09 | 0.628 | 0.77 |
| RRNNSYTCYTA [SLC20A2_Y386] | 1.04 | 1.81 | 0.678 | 0.645 | 0.536 | 0.615 | 1.2 | 0.73 | 0.523 | 1.24 | 0.665 | 1.02 | 0.865 | 0.915 | 1 | 0.526 |
| DLAGRYFALRS [CKB_Y173_K177R_YF] | 0.587 | 0.419 | 0.371 | 0.447 | 0.394 | 0.36 | 0.579 | 0.38 | 0.4 | 0.761 | 0.476 | 0.554 | 0.347 | 0.905 | 0.628 | 0.738 |
| FFPANYVAPMT [GRAP2_Y324_L319F] | 0.924 | 4.84 | 2.17 | 0.65 | 0.646 | 0.41 | 0.826 | 0.471 | 0.469 | 0.865 | 0.768 | 1.36 | 0.449 | 0.814 | 0.883 | 0.6 |
